These results are taken from the RNAGym collection of RNA variant scans (doi:10.7554/elife.80360).

The labels stand for the following.
B1: HDV Ribozyme (parent)
chain: GGCCGGCAUGGUCCCAGCCUCCUCGCUGGCGCCGGCUGGGCAACAUUCCGAGGGGACCGUCCCCUCGGUAAUGGCGAAUGGGACCCA

The data set covers variants of B1. Briefly: self-cleavage, relative activity (ratio to wild type); higher = more cleavage; co-transcriptional.
With C41U A87G, the self-cleavage stood at 0.961.

For the variant A43G G54A, the self-cleavage is 0.378.

Consider C30U G31U, for which the self-cleavage came out at 0.0268. The figure for G6A C22A is 0.208. The figure for A51U C57A is 0.814; for A78U C86A it is 0.208. With G5U G34C the figure was 0; with A51G G53C, 0.665; with G53U U69G, 0.964. In the case of G31U U60G, the self-cleavage amounted to 0.212. With G54U A83C the figure was 0.386.

Consider U23A G39A, for which the self-cleavage was determined as 0.408. Regarding U60A C62A, the self-cleavage turned out to be 0.886. Consider A8U G59C, for which the self-cleavage stood at 1.02.

For G11C C24A, the self-cleavage came to 0.0898.

G68A C85A: the self-cleavage came out at 0.831. As to A78U A83G, the self-cleavage is 0.285. Turning to A16C G54U, the self-cleavage was found to be 0.789. Consider G17U C18U, for which the self-cleavage is 0.189. For G40A U72C, the self-cleavage is 0.504.

As to U9G G73U, the self-cleavage was 0.0831.

Regarding U46G C85A, the self-cleavage turned out to be 0.831. Regarding G40C G53U, the self-cleavage was determined as 0.337.

With G1U A56G, the self-cleavage is 0.521.

For the variant G1C G80U, the self-cleavage is 0.0484. The figure for G6C G67C is 0.192; for C62G A71U it is 0.489; for G31U G73C it is 0.

In the case of U47C A56U, the self-cleavage is 0.942. The figure for U72G A87C is 0.709. For C62A U69G, the self-cleavage was 1.03.

For the variant U9C C48U, the self-cleavage was 0.748. The figure for G40A G82A is 0.358; for C44G G76A it is 0.8.

C44G G76U: the self-cleavage is 1.03. With U20G C24G the figure was 0.151. With C22A C58U the figure was 0.332; with C48U C57G, 0.798; with C44U A83U, 0.208. The figure for A45G U79A is 0.755.

On to C41U G80A, for which the self-cleavage turned out to be 0.283. The figure for G38A A56G is 0.108; for G5C G76U it is 0.378. With A56U C86G the figure was 1.19; with G29A C32A, 0.0222; with U47C G81A, 0.332. The figure for C19G A42U is 0; for G38A C75U it is 0.0443. In the case of G29A A45U, the self-cleavage is 0.0332. The figure for C3U C44A is 0.492; for A43C C75U it is 0.172; for G6C C63A it is 0.582. With G53A C62U the figure was 0.926.

In the case of C13G C64U, the self-cleavage came out at 0.0268. The figure for C64A G74U is 0.327. The figure for G2U C36G is 0.185; for G34A G40C it is 0.0482; for C15U C49A it is 0.623. The figure for C3U G34U is 0.141. Take C15G C36G: the self-cleavage worked out at 0. The figure for C15A G73C is 0.249. With G74C A78G the figure was 0.113; with C19G C57A, 0.0256.

As to G38C A56U, the self-cleavage came out at 0.262. With G50C G53C the figure was 0.18; with C3U C19G, 0.0171. With U20C U79G the figure was 0.185. With G31A G82C the figure was 0.146. Regarding G29C G52C, the self-cleavage was found to be 0.208. With G52C C63G the figure was 0.892. Regarding U23G C84U, the self-cleavage was determined as 0.342. In the case of C3A A56G, the self-cleavage was 0.632. The figure for G10A C19G is 0.111. For C21U C49A, the self-cleavage turned out to be 0.291. The figure for G34C C62A is 0.162; for C24U G67U it is 0.372; for C75A G80C it is 0.18. The figure for C32A U65A is 0.309; for C63A G67U it is 0.451; for G2U G40A it is 0.0369. The figure for C61A C63G is 0.499; for A70G G76C it is 0.956; for C41A G52C it is 0.928. Consider C21U U79G, for which the self-cleavage was found to be 0.0426.

Take U20A G68A: the self-cleavage came out at 0.0504. With C48U G52A the figure was 0.931; with C36G A42G, 0.147.

Take C49U C63U: the self-cleavage amounted to 0.958. The figure for G29C A42G is 0; for G25C G76C it is 0.0723; for G2U G52A it is 0.0704. With G6C C66U the figure was 0.256; with C36U A78C, 0.173.

On to G31C G55A, for which the self-cleavage came out at 0.546. The figure for G34U C64G is 0.277; for G1A G80C it is 0.119. On to G29C C61G, for which the self-cleavage was 0.032. With G67C A70C the figure was 0.655. With C58G U79A the figure was 0.571; with C26A G68A, 1.08; with G17U C33U, 0.326. With G54U A78U the figure was 0.302; with C7U A83G, 0.475; with G11A G38A, 0.102.

Turning to C7A A42G, the self-cleavage was determined as 0.0831.

Consider G28C A42U, for which the self-cleavage was 0.166. As for A16U G52U, the self-cleavage stood at 0.863.

In the case of G50A G59A, the self-cleavage turned out to be 1.03. The figure for G52C C61A is 0.857. For G25U G52A, the self-cleavage came to 0.166. As to C7G A51U, the self-cleavage amounted to 0.107. The figure for U12A A71C is 0.262; for G29U G53C it is 0.125; for G40U A77G it is 0.462.

With G31C G52C, the self-cleavage stood at 0.277. The figure for U12C C86G is 0.104; for A8C A45C it is 0.156. The figure for C44G A87G is 0.641; for G17U C61A it is 0.456; for U79G C84A it is 0.38. Regarding U9A G74C, the self-cleavage stood at 0.0573. With U69A A83G, the self-cleavage amounted to 0.712. The figure for G31A A51G is 0.554; for U69G G73C it is 0.665; for G1C A43U it is 0.135. The figure for A43U G53U is 0.492; for C49G A70U it is 0.429. With U47A G73A the figure was 0.447; with G31A G80C, 0.185; with C61A G82U, 0.507.

For the variant U23A G34A, the self-cleavage was 0.121.

For the variant G25U C49U, the self-cleavage worked out at 0.481. For G25U C49G, the self-cleavage amounted to 0. With C64G G81U the figure was 0.312; with G34U U60A, 0.0817. With G11U U69C the figure was 0.161. With G68C A77U the figure was 0.755. Turning to C21U C48G, the self-cleavage was determined as 0.181. With G2C A70U the figure was 0.0601; with G28A G59C, 0.086; with C3G C22U, 0.179. The figure for C36U A51C is 0.665; for U46G A83C it is 0.293. The figure for U27A C57G is 0.8; for C19A G82C it is 0.133; for G11C G74C it is 0.

Turning to U60G G81C, the self-cleavage came to 0.268. In the case of G29C C63G, the self-cleavage came out at 0.0489. For the variant U20A G74U, the self-cleavage was 0.0437. In the case of G10A C62U, the self-cleavage is 0.898. With C3G G5A the figure was 0.18; with G53A C75G, 0.156; with C13U C84A, 0.911. With G17C C75G the figure was 0.111; with U23A A71U, 0.831.

Take U20C C33U: the self-cleavage came out at 0.0536.

As for C13A C18U, the self-cleavage stood at 0.0604.

Take C13G A45G: the self-cleavage turned out to be 0.138. With C64A G82U the figure was 0.409; with C3U A71U, 0.742; with G40U A78U, 0.191. The figure for G35U G82U is 0.162; for A8C A42G it is 0.462; for C30G G73U it is 0.0845. In the case of U46C C58A, the self-cleavage turned out to be 0.554. On to U23A C58G, for which the self-cleavage was 1.34.

For C7U G76C, the self-cleavage was 0.815.
